The text below walks through data of patent publication US20200291066A1.

Like-named read-outs stand apart in the source and are kept apart here. Ends that are not written are not given here.

The target in experiment [1] is T1, human IL-2Rβ (CD122 protein, Fc Tag) (27-239) (human), P14784.
T1 chain: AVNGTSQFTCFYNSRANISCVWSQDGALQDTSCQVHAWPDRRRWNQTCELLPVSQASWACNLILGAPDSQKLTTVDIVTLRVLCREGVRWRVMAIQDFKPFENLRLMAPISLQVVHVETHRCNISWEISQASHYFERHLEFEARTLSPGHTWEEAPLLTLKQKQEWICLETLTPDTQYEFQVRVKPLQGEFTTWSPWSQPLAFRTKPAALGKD
In words: pH-dependent ELISA (Examples 9-12). Background: In an ELISA, binding on a coated surface is turned into a signal by an enzyme label.

The target of experiment [2] is T1, human IL-2Rβ (CD122 protein, Fc Tag) …. In words: pH-dependent ELISA (Examples 9-12).

B1: SEQ ID NO 489 (peptide)
peptide: PGVQDCXIAHXGELCEFVWN
modifications: not fully specified; X: residue not identified in the source; ends and bridges not checked
As for B1, the decrease in binding at pH 7.5 compared to pH 6.0 in experiment [1] was more than 50%; in experiment [2], more than 15%.
